Measurements: patent US7220554B2, “Methods for identifying inhibitors” (priority 2003, dated 2007)

Experiments:
HIV-gpt(Δvif) = experiment: Titers of HIV-gpt(Δvif) virions made in 293T or COS7 cells, infectivity in HeLa-CD4 cells; assay type: cell-based, HIV-1; conditions: for antiviral activity of chimera: titer of virions from 293T cells in the absence of Vif: FIG. 12A
Source text: (§1) To analyze the antiviral activity of pcDNA3.1-APOBEC3G-Myc, human 293T and African green monkey COS7 cells were transiently cotransfected with pcDNA3.1-APOBEC3G-Myc in the presence of vectors for expression of HIV-gpt(wt) or HIV-gpt(Δvif) [these are derivatives of wild-type (wt) or vif deleted (Δvif) HIV-1 with the bacterial gpt gene replacing the viral env gene; Madani & Kabat, J. Virol. […] 74, 5982–5987, 2000]. Virions were subsequently harvested from the culture media and analyzed their infectivities in HeLa-CD4 (clone HI-J) cells. […] Similar results were obtained with owl monkey kidney cells. Thus, HIV-1 Vif neutralizes human APOBEC3G-Myc in both human and monkey cells.

HIV-1 encoded proteins = experiment: Immunoblotting of HIV-1-encoded proteins (Gag, Vif) in cotransfected producer cells; assay type: cell-based
Source text: Expression vectors: pHIV-gpt(wt) and its derivative pHIV-gpt(Δvif) were previously described (Madani & Kabat, J. Virol. 72, 10251–10255, 1998; Page et al., J Virol 64, 5270–5276, 1990; Madani & Kabat, J. Virol. 74, 5982–5987, 2000). pcDNA3.1-Vif was donated by D. Gabuzda (Dana-Farber Cancer Institute, Harvard, Boston, Mass.). Rev-dependent plasmids for expression of the Vif mutants Δ2, Δ5, Δ6, Δ7, Δ9, Δ10, Δ12 and Δ13 (Simon et al., J. Virol. 73, 2675–2681, 1999) were provided by M. Malim (Medical Research Council, Cambridge, UK) and were coexpressed with pHIV-gpt(Δvif). APOBEC3G cDNA was cloned from H9 cells (nonpermissive) by reverse transcriptase-PCR (Barnes, Proc. Natl. Acad. Sci. USA 91, 2216–2220, 1994; Sambrook et al., Molecular Cloning. A Laboratory Manual, Chapter 14, 14.5–14.34., CSHL Press, Cold Spring Harbor, 1989) using primers complementary to the 5′ and 3′ ends of APOBEC3G coding region (Sheehy et al., Nature 418, 646–650, 2002) (upstream primer, 5′-[…]-3′ (SEQ ID NO: 15) containing an XhoI restriction site [underlined]; downstream primer, 5′-[…]-3′ (SEQ ID NO: 16) containing a SfuI restriction site [underlined]). […] Virus-containing fractions were detected by immunoblotting using HIV Immunoglobulin serum (AIDS Research & Reference Reagent Program, Division of AIDS, NIAID, NIH: contributed by NABI and NHLBI). […]

HIV-gpt(wt) = experiment: Titers of HIV-gpt(wt) virions made in 293T or COS7 cells, infectivity in HeLa-CD4 cells; assay type: cell-based, HIV-1; conditions: producer cells 293T and COS7 cotransfected
Source text: as §1

| Molecule | antiviral activity of chimera: titer of virions from 293T cells in the absence of Vif (HIV-gpt(Δvif)) | decrease of titers of HIV-gpt(Δvif) virions (HIV-gpt(Δvif); producer cells 293T and COS7 cotransfected) | synthesis of HIV-1 encoded proteins in the producer cells or their packaging into virions (HIV-1 encoded proteins) | expression of Vif (HIV-1 encoded proteins; FIGS. 3A and 3B) | effect on titers of HIV-gpt(wt) (HIV-gpt(wt)) |
| --- | --- | --- | --- | --- | --- |
| APOBEC3G-Myc: fusion of human APOBEC3G with Myc epitope and 6×His tag, SEQ ID NO: 2 (protein, Synthetic construct human APOBEC3G fused to Myc) MKPHFRNTVERMYRDTFSYNFYNRPILSRRNTVWLCYEVKTKGPSRPPLDAKIFRGQVYSELKYHPEMRFFHWFSKWRKLHRDQEYEVTWYISWSPCTKCTRDMATFLAEDPKVTLTIFVARLYYFWDPDYQEALRSLCQKRDGPRATMKIMNYDEFQHCWSKFVYSQRELFEPWNNLPKYYILLHIMLGEILRHSMDPPTFTFNFNNEPWVRGRHETYLCYEVERMHNDTWVLLNQRRGFLCNQAPHKHGFLEGRHAELCFLDVIPFWKLDLDQDYRVTCFTSWSPCFSCAQEMAKFISKNKHVSLCIFTARIYDDQGRCQEGLRTLAEAGAKISIMTYSEFKHCWDTFVDHQGCPFQPWDGLDEHSQDLSGRLRAILQNQENFEQKLISEEDLNMHTGHHHHHH | low titer | 25–100 fold | no significant or reproducible effect | no effect | no effect |
| APOBEC3G-luciferase (protein, Synthetic construct human APOBEC3G fused to luciferase) MKPHFRNTVERMYRDTFSYNFYNRPILSRRNTVWLCYEVKTKGPSRPPLDAKIFRGQVYSELKYHPEMRFFHWFSKWRKLHRDQEYEVTWYISWSPCTKCTRDMATFLAEDPKVTLTIFVARLYYFWDPDYQEALRSLCQKRDGPRATMKIMNYDEFQHCWSKFVYSQRELFEPWNNLPKYYILLHIMLGEILRHSMDPPTFTFNFNNEPWVRGRHETYLCYEVERMHNDTWVLLNQRRGFLCNQAPHKHGFLEGRHAELCFLDVIPFWKLDLDQDYRVTCFTSWSPCFSCAQEMAKFISKNKHVSLCIFTARIYDDQGRCQEGLRTLAEAGAKISIMTYSEFKHCWDTFVDHQGCPFQPWDGLDEHSQDLSGRLRAILQNQENKLSMVTDAKNIKKGPAPFYPLEDGTAGEQLHKAMKRYALVPGTIAFTDAHIEVDITYAEYFEMSVRLAEAMKRYGLNTNHRIVVCSENSLQFFMPVLGALFIGVAVAPANDIYNERELLNSMGISQPTVVFVSKKGLQKILNVQKKLPIIQKIIIMDSKTDYQGFQSMYTFVTSHLPPGFNEYDFVPESFDRDKTIALIMNSSGSTGLPKGVALPHRTACVRFSHARDPIFGNQIIPDTAILSVVPFHHGFGMFTTLGYLICGFRVVLMYRFEEELFLRSLQDYKIQSALLVPTLFSFFAKSTLIDKYDLSNLHEIASGGAPLSKEVGEAVAKRFHLPGIRQGYGLTETTSAILITPEGDDKPGAVGKVVPFFEAKVVDLDTGKTLGVNQRGELCVRGPMIMSGYVNNPEATNALIDKDGWLHSGDIAYWDEDEHFFIVDRLKSLIKYKGYQVAPAELESILLQHPNIFDAGVAGLPDDDAGELPAAVVVLEHGKTMTEKEIVDYVASQVTTAKKLRGGVVFVDEVPKGLTGKLDARKIREILIKAKKGGKIAV | antiviral activity only in the absence of Vif | – | – | – | – |
